In paper PMC11138481:

Tests used:
Flag-GAS41 H43S (human) = Flag-GAS41 H43S (human) (UniProt O95619); experiment: co-IP
[1] = biological target: GAS41 YEATS domain (residues 11–150) (human) (UniProt O95619); experiment: MST
GAS41 YEATS domain (residues 11–150) (human), sequence (O95619 11-150): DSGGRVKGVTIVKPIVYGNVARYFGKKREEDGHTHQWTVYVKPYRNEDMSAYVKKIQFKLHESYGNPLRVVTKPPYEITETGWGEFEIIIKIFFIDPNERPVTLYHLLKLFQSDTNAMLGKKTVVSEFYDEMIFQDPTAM

Flag-GAS41 H43S (human), sequence (O95619 whole entry H43S, the tested form may be a part): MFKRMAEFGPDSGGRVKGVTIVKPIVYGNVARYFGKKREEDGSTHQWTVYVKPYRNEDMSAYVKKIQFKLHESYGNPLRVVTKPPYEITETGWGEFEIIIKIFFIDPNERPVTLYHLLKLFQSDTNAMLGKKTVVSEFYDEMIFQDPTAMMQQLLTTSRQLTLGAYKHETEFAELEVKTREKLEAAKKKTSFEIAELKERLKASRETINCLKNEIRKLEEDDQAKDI

Row | percent reduction of binding against Flag-GAS41 wt (Flag-GAS41 H43S (human)) | Kd [1] | Substance
1 | > 60% |  | nucleosomal histone H3K27cr (endogenous) (from UniProt P68431 1-136) (natural protein)
2 |  | 0.913 µM | unmodified nucleosome core particle (from UniProt P04908 1-130; P62805 1-103) (complex)
3 |  | 0.229 µM | H3K27ac nucleosome core particle (from UniProt P04908 1-130; P62805 1-103) (complex)
4 |  | 0.158 µM | H3K27cr nucleosome core particle (from UniProt P04908 1-130; P62805 1-103) (complex)
